According to patent US20230212587A1, “Mutant Hydroxyphenylpyruvate Dioxygenase Polypeptide, Encoding Gene Thereof and Use Therefor” (Beijing Dabeinong Biotechnology Co., Ltd., priority 2019, published 2023):
Numbering of substitutions follows the chain as printed. Names and notes keep the numbering of the source.

B1: CyHPPDm-F372G: Cyanobacteria HPPD mutant F372G, SEQ ID NO: 335 (protein)
chain: MEFDYLHLYVDDYQSAHRCYQRQWGFTCVNKIITDQGITGIYQQGQILLLISASESSLSRYADYLQKHPPGVGEVAWQVANWQKIQHQLSELQIETTPVIHPLTKAEGLTFLLWGDVHHSIYPVRSELNQNKTLHGVGLTTIDHVVLNIAADQFTQASQWYQQVFGWSVQQSFTVNTPHSGLYSEALASANGKVQFNLNCPTNNSSQIQTFLANNHGAGIQHVAFSTTSITRTVAHLRERGVNFLKIPTGYYQQQRNSSYFNYASLDWDTLQCLEILLDDQDNTGERLLLQIGSQPCYGVGTLFWEIIERRHRAKGFGQGNFQALYEAVETLEKQLEVP
modifications: CyHPPDm-F372G Amino Acid Sequence
B2: AhHPPDm-F372G: Arachis hypogaea HPPD mutant F372G, SEQ ID NO: 333 (protein)
chain: MATAYTYAHAVTYCNSQHNPPIIPILSTNQHPPRVTLPSSIPHFISTITTFNLKHFPSHSLHTVMVTQTQQNAPSSSPELGFKLVGFKNFVRTNPKSDRFKVIRFHHVEFWCTDATNTASRFSWGLGMPIVAKSDLSTGNAVHASYLLRSGDLNFLFSAPYSASIAGDGASASFPSFSASDCHSFAAKHGLAVRAVAIEVEDASAAFSASVANGAKPVSPAVLLDNSVGFAEVHLYGDVVLRYISYSAPTRESNLNPTLRFLPGFEAVEADSSFPELDYGIRRLDHAVGNVPELAPAVNYLKKFTGFHEFAEFTAEDVGTSESGLNSVVLASNDEMVLLPLNEPVYGTKRKSQIETYLEHNEGAGLQHLALVSEDIFRTLREMRKRSTIGGFQFMPSPPPTYYRNLKKRAGDVLSDEQIKECEELGILVDRDDQGTLLQIGTKPVGDRPTIFIEIIQRIGCMLKDEEGKVYQKGGCGGFGKGNFSELFKSIEEYEKTLESRRTA
modifications: AhHPPDm-F372G Amino Acid Sequence
B3: N3HPPDm-F372G: Burkholderia sp. N3 HPPD mutant F372G, SEQ ID NO: 341 (protein)
chain: MQIPNWENPVGTDGFEFIEYTAPDPKALGQLFERMGFTAIARHRHKDVTVYRQGDINFIINAEPHSFAQRFARLHGPSICAIAFRVQDAAKAYQHALELGAWGFDNKTGPMELNIPAIKGIGDSLIYFVDRWRGKNGAQPGAIGDISIYDVDFEPIAGANPNPAGHGLTYIDHLTHNVHRGRMQEWAEFYERLFNFREVRYFDIEGKVTGVKSKAMTSPCGKIRIPINEEGSDTAGQIQEYLDAYHGEGIQHIALGTNDIYGAVDGLRGKEVKLLDTIDTYYELVDRRVPDHGESLDELKKRKILIDGARDDLLLQIGTENQIGPIFFEIIQRKGNQGFGEGNFKALFESIELDQIRRGVVQDKA
modifications: N3HPPDm-F372G Amino Acid Sequence
B4: N4HPPDm-F372G: Burkholderia sp. N4 HPPD mutant F372G, SEQ ID NO: 343 (protein)
chain: B3 chain with H65D, N160T, N258S, N343T
modifications: N4HPPDm-F372G Amino Acid Sequence
B5: S1HPPDm-F372G: Solanum lycopersicum HPPD mutant F372G, SEQ ID NO: 331 (protein)
chain: MGKQAAAAADDQQLPGDIEDKFKLVGFNHFVRTNPRSDFFTVKRFHHIEFWCGDATNTARRFSWGLGLPIAAISDLSTGNSVHASYLLRSSSSSQLQFLFTAPYSSAISTSSSASIPTFSVSSHRSFTATHGLGVRAIALEVENSRLAFSTCVAHGAKPVSEPVILNDEVVIAEVHLYGDVVLRFVSFLKDSNCFVFLPGFESVEGAQLDYGIRRLDHAVGNVPELGPVVEYIKSFTGFHEFAEFTAEDVGTAESGLNSVVLANNDETVLFPLNEPVYGTKRKSQIQTYLEHNEGAGVQHLALVTEDIFRTLREMRKRSGIGGFEFMPSPPPTYYKNLKTRAGDILSDEQIQECEELGILVDRDDQGTLLQIGTKPVGDRPTIFLEIIQRIGCMLKNEEGELYQKGGCGGFGKGNFSELFKSIEEYEKTLEAKQNTQVAIA
modifications: SlHPPDm-F372G Amino Acid Sequence
B6: N1HPPDm-F372G: Sphingobium sp. N1 HPPD mutant F372G, SEQ ID NO: 337 (protein)
chain: MAADSENPLGLHGFAFAEFTSPDPAAMARQFEQLGFVPAARRKDRGLTLYRQGRIAFILNAGEGEQASAFRAAHGPSANGMAFNVADAKAAHRHAIQSGATDADTAQSALPGTYAIEGIGDSLLYLVDSDPFADWDEVPGWREASAERGVGLDLLDHLTHNVRRGQMRVWSEFYATLFGFEEQKFFDIKGQATGLFSQAMIAPDHEIRIPLNESQDDNSQIEEFIREYNGEGIQHLALTTPDIYSTVEKLRANGVRLQDTIDTYYDLVDERVPGHGEDLARLRKNRILIDGDVHDEGLLLQIGTETMFGPIFFEIIQRKGNEGFGNGNFQVLYESIELDQIRRGVVTVDA
modifications: N1HPPDm-F372G Amino Acid Sequence
B7: TaHPPDm-F372G: Triticum aestivum HPPD mutant F372G, SEQ ID NO: 301 (protein)
chain: MPPTPTTPAATGAGAAAAVTPEHARPRRMVRFNPRSDRFHTLSFHHVEFWCADAASAAGRFAFALGAPLAARSDLSTGNSVHASQLLRSGNLAFLFTAPYANGCDAATASLPSFSADAARRFSADHGLAVRSIALRVADAAEAFRASVDGGARPAFSPVDLGRGFGFAEVELYGDVVLRFVSHPDGTDVPFLPGFEGVSNPGAVDYGLTRFDHVVGNVPELASAAAYVAGFTGFHEFAEFTTEDVGTAESGLNSMVLANNSEGVLLPLNEPVHGTKRRSQIQTFLEHHGGPGVQHIAVASSDVLRTLREMRARSAMGGFDFLPPPLPKYYEGVRRIAGDVLSEAQIKECQELGVLVDRDDQGVLLQIGTKPVGDRPTLFLEMIQRIGCMEKDERGEEYQKGGCGGFGKGNFSELFKSIEDYEKSLEAKQSAAVQGS
modifications: TaHPPDm-F372G Amino Acid Sequence
B8: ZmHPPDm-F372G: Zea mays HPPD mutant F372G, SEQ ID NO: 295 (protein)
chain: MPPTPTAAAAGAAVAAASAAEQAAFRLVGHRNFVRFNPRSDRFHTLAFHHVELWCADAASAAGRFSFGLGAPLAARSDLSTGNSAHASLLLRSGSLSFLFTAPYAHGADAATAALPSFSAAAARRFAADHGLAVRAVALRVADAEEAFRTSVAAGARPAFGPVDLGRGFRLAEVELYGDVVLRYVSYPDGAAGEPFLPGFEGVASPGAADYGLSRFDHIVGNVPELAPAAAYFAGFTGFHEFAEFTTEDVGTAESGLNSMVLANNSENVLLPLNEPVHGTKRRSQIQTFLDHHGGPGVQHMALASDDVLRTLREMQARSAMGGFEFMAPPTSDYYDGVRRRAGDVLTEAQIKECQELGVLVDRDDQGVLLQIGPKPVGDRPTLFLEIIQRIGCMERDEKGQEYQKGGCGGFGKGNFSQLFKSIEDYEKSLEAMQAAAAATAQGS
modifications: ZmHPPDm-F372G Amino Acid Sequence
B9: N2HPPDm-F372G: Sphingobium sp. N2 HPPD mutant F372G, SEQ ID NO: 339 (protein)
chain: MTLFDNPLGLDGFEFVEFSAPAKGMLEPVFAAMGFVMIARHRSKDVQLWRQGGINLIANYEPRSPAAYFAAEHGPSACGMGWRVRNAAKAYELAVERGAEPVDVKTGPMELRLPAIRGIGGSIIYLIDRYEDEDGGLSIYDIDFVYEPGVDRHPEGAGFKIIDHLTHNVYGGRMAHWASFYERVFGFREIRYFDIKGEYTGLTSKAMTAPDGKIRIPLNEEGKAGGGQIEEFLRAYNGEGIQHIAFLCDDLIAAWDKLKALGTPLMTAPPATYYEMLDERLPGHGEPVAELQKRGILLDGSTQQGDPRLLLQIGGQATIGPVFFEFIQRKKDEGFGEGNFTALFESMERDQLRRGTLNAGESA
modifications: N2HPPDm-F372G Amino Acid Sequence
B10: GsHPPDm-F372G: Gossypium hirsutum HPPD mutant F372G, SEQ ID NO: 299 (protein)
chain: MVQTNQSGSGNDFKLVGFSNFVRSNPKSDRFTVKRFHHIEFWCTDATNVARRFSWGLGMQFVAKSDLSTGNLTHASYLLRSRDLNFLFTAPYSPSIAVAQNLSPQSTASIPSFDHSLCRSFAATHGLGVRAIAIEVDDAETAFTTSVTHGALPFCPPTPLGDVATIAEVKLYGDVVLRYVSYTTTINSDHDFLPGFEKIEDTLSYPLDYGLRRLDHAVGNVPELGPAVSYVKSFTGFHEFAEFTAEDVGTSESGLNSVVLANNEEMVLLPMNEPVFGTKRKSQIQTYLEHNEGAGVQHLALVSEDIFKTLREMRKRSFVGGFEFMPSPPPTYYKKLKQRAGDILSDEQIKECEELGILVDRDDQGTLLQIGTKPVGDRPTIFIEIIQRIGCMVKDEEGKQYQKGGCGGFGKGNFSELFKSIEEYEKSLEAKQSQNP
modifications: GsHPPDm-F372G Amino Acid Sequence
B11: BdHPPDm-F372V: Brachypodium distachyon HPPD mutant F372V, SEQ ID NO: 355 (protein)
chain: MPPPATTAAPAAAAVTPEHARPPRRVARVNPRSDRFSALSFHHVELWCADAASAAGRFSFALGAPPAARSDLSTGNSAHASILLRSGSLAFLFTAPYAPSPASDSAASIPSFSASAARQFTADHGGLAVRAVALRVSSASDAFHASVSAGARPSFPPADLGQGFALAEVELYGDVVLRFISHPDENTEIPFLPGFESVSNPGASTYGLTRFDHVVGNVPSLAPVAAYIAGFTGFHEFAEFTAEDVGTADSGLNSVVLANNSERVLLPLNEPVHGTKRRSQIQTYLDHHGGPGVQHIALASDDVLRTLREMRARSAMGGFEFLAPPPPNYYDGVRRRAGDVLSEAQIKECQELGVLVDRDDQGVLLQIVTKPVGDRPTLFLEMIQRIGCMEKDEIGQEQQKGGCGGFGKGNFSELFRSIEEYEKSLEAKQSAVVQES
modifications: BdHPPDm-F372V Amino Acid Sequence

The molecules below were run on Arabidopsis thaliana T1 plants (assay: Topramezone tolerance of transgenic Arabidopsis thaliana T1 plants (pesticide damage grade by bleached leaf area, score, resistance evaluation)). Settings: topramezone 25 g ai/ha (1x); HPPD F372G mutants, Table 6.
Type: in vivo
Method in brief: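 Herbicide tolerance was judged per plant on a bleaching scale (grade 0 no bleaching to grade 3 fully bleached) 7 DAT. Topramezone doses were 0, 25, 50 and 100 g ai/ha on 18-day-old T1 and wild-type plants.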
In the case of B1, the Resistance evaluation is reported as “Moderately resistant”.
In the case of B2, the Resistance evaluation is reported as “Poorly resistant”.
For B3, the Resistance evaluation was “Highly resistant”.
B4 was tested, and the Resistance evaluation was “Highly resistant”.
In the case of B5, the Resistance evaluation is reported as “Poorly resistant”.
For B6, the Resistance evaluation was “Highly resistant”.
B7 was tested, and the Resistance evaluation was “Highly resistant”.
For B8, the Resistance evaluation was “Highly resistant”.
In the case of B9, the Resistance evaluation is reported as “Highly resistant”.
For B10, the Resistance evaluation was “Moderately resistant”.

Same assay, conditions: topramezone 25 g ai/ha (1x); HPPD F372V mutants, Table 7
In the case of B11, the Resistance evaluation is reported as “Highly resistant”.

Same assay, conditions: topramezone 100 g ai/ha (4x); HPPD F372G mutants, Table 6
With B1 the Resistance evaluation was “Non-resistant”.
In the case of B2, the Resistance evaluation is reported as “Non-resistant”.
With B3 the Resistance evaluation was “Highly resistant”.
B4 was tested, and the Resistance evaluation was “Highly resistant”.
For B5, the Resistance evaluation was “Non-resistant”.
With B6 the Resistance evaluation was “Highly resistant”.
With B7 the Resistance evaluation was “Moderately resistant”.
For B8, the Resistance evaluation was “Moderately resistant”.
B9 was tested, and the Resistance evaluation was “Highly resistant”.
For B10, the Resistance evaluation was “Non-resistant”.

Same assay, conditions: topramezone 100 g ai/ha (4x); HPPD F372V mutants, Table 7
In the case of B11, the Resistance evaluation is reported as “Poorly resistant”.
